In patent publication US20200010567A1 (NEURIMMUNE, published 2020):

Assays:
[1] = target: T1, (GA)15: H-CHHHHHH(GA)15-OH; experiment: indirect ELISA, uncoupled peptide coated, antibody titrated [also D00010 FIG. 2H]
T1 construct: synthetic, not coupled to BSA; also called poly-GA DPR protein peptide
T1 peptide: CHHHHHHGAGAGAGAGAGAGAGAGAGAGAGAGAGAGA
Procedure: In brief, dipeptide repeat proteins were synthesized and purified by Schafer-N(Copenhagen, Denmark): (GA)₁₅: H-CHHHHHH(GA)₁₅-OH; (GP)₁₅: H-C(GP)₁₅-OH; (GR)₁₅: H-C(GR)₁₅-OH; (PA)₁₅: H-C(PA)₁₅-OH; (PR)₁₅: H—C(PR)₁₅-OH. 96-well microplates (Corning Incorporated, Corning, USA) were coated with dipeptide repeat protein peptides at a concentration of either 5 μg/ml or 20 μg/ml in coating buffer (15 mM Na₂CO₃, 35 mM NaHCO₃, pH 9.42). Non-specific binding sites were blocked for 1 h at room temperature with PBS/0.1% Tween®-20 containing 2% BSA (Sigma-Aldrich, Buchs, Switzerland). Primary antibodies were diluted to the indicated concentrations and incubated for 1 h at room temperature, followed by incubation with a donkey anti-human IgG Fcγ-specific antibody conjugated with HRP (Jackson ImmunoResearch Laboratories, Inc., West Grove, USA). Binding was determined by measurement of HRP activity in a standard colorimetric assay. EC₅₀ values were estimated by non-linear regression using GraphPad Prism software (San Diego, USA). The binding specificity and EC₅₀ of human-derived antibodies for C9orf72 dipeptide repeat protein peptides (GA)₁₅, (GP)₁₅, (GR)₁₅, (PA)₁₅ and (PR)₁₅ were determined by indirect ELISA.

[2] = target: T2, GP4: H-(GP)4HHHHHH-NH2; experiment: indirect ELISA, His-tagged peptide coated at 50 ug/ml, antibody titrated [also D00026 FIG. 7J]
T2 peptide: H-GPGPGPGPHHHHHH-NH2
Source text: (§1) In brief, dipeptide repeat proteins were synthesized and purified by Schafer-N (Copenhagen, Denmark): GA₂₀: H-(GA)₂₀HHHHHH-NH₂; GA₁₀: H-(GA)₁₀HHHHHH-NH₂; GA₆: H-(GA)₆HHHHHH-NH₂; GA₅: H-(GA)₅HHHHHH-NH₂; GA₄: H-(GA)₄HHHHHH-NH₂; GA₃: H-(GA)₃HHHHHH-NH₂; GA₂: H-(GA)₂HHHHHH-NH₂; GP₂₀: H-(GP)₂₀HHHHHH-NH₂; GP₁₀: H-(GP)₁₀HHHHHH-NH₂; GP₆: H-(GP)₆HHHHHH-NH₂; GP₅: H-(GP)₅HHHHHH-NH₂; GP₄: H-(GP)₄HHHHHH-NH₂; GP₃: H-(GP)₃HHHHHH-NH₂; GP₂: H-(GP)₂HHHHHH-NH₂. GR₂₀: H-(GR)₂₀HHHHHH-NH₂; GR₁₀: H-(GR)₁₀HHHHHH-NH₂; GR₆: H-(GR)₆HHHHHH-NH₂; GR₅: H-(GR)₅HHHHHH-NH₂; GR₄: H-(GR)₄HHHHHH-NH₂; GR₃: H-(GR)₃HHHHHH-NH₂; GR₂: H-(GR)₂HHHHHH-NH₂; PA₂₀: H-(PA)₂₀HHHHHH-NH₂; PA₁₀: H-(PA)₁₀HHHHHH-NH₂; PA₆: H-(PA)₆HHHHHH-NH₂; PA₅: H-(PA)₅HHHHHH-NH₂; PA₄: H-(PA)₄HHHHHH-NH₂; PA₃: H-(PA)₃HHHHHH-NH₂; PA₂: H-(PA)₂HHHHHH-NH₂; PR₂₀: H-(PR)₂₀HHHHHH-NH₂; PR₁₀: H-(PR)₁₀HHHHHH-NH₂; PR₆: H-(PR)₆HHHHHH-NH₂; PR₅: H-(PR)₅HHHHHH-NH₂; PR₄: H-(PR)₄HHHHHH-NH₂; PR₃: H-(PR)₃HHHHHH-NH₂; PR₂: H-(PR)₂HHHHHH-NH₂. 96-well microplates (Corning Incorporated, Corning, USA) were coated with dipeptide repeat protein peptides at a concentration of 50 μg/ml in coating buffer (15 mM Na₂CO₃, 35 mM NaHCO₃, pH 9.42). Non-specific binding sites were blocked for 1 h at room temperature with PBS/0.1% Tween®-20 containing 2% BSA (Sigma-Aldrich, Buchs, Switzerland). Primary antibodies were diluted to the indicated concentrations and incubated 1 h at room temperature, followed by incubation with a donkey anti-human IgG Fcγ-specific antibody conjugated with HRP (Jackson ImmunoResearch Laboratories, Inc., West Grove, USA). Binding was determined by measurement of HRP activity in a standard colorimetric assay. EC₅₀ values were estimated by non-linear regression using GraphPad Prism software (San Diego, USA).

[3] = target: T3, GP2: H-(GP)2HHHHHH-NH2; experiment: as above
T3 peptide: H-GPGPHHHHHH-NH2
Source text: as §1

[4] = target: T4, GP3: H-(GP)3HHHHHH-NH2; experiment: as above
T4 peptide: H-GPGPGPHHHHHH-NH2
Source text: as §1

[5] = target: T5, GA4: H-(GA)4HHHHHH-NH2; experiment: indirect ELISA, His-tagged peptide coated at 50 ug/ml, antibody titrated [also D00027 FIG. 7M]
T5 peptide: H-GAGAGAGAHHHHHH-NH2
Source text: as §1

[6] = target: T6, GA2: H-(GA)2HHHHHH-NH2; experiment: as above
T6 peptide: H-GAGAHHHHHH-NH2
Source text: as §1

[7] = target: T7, GA5: H-(GA)5HHHHHH-NH2; experiment: as above
T7 peptide: H-GAGAGAGAGAHHHHHH-NH2
Source text: as §1

[8] = target: T8, GA3: H-(GA)3HHHHHH-NH2; experiment: as above
T8 peptide: H-GAGAGAHHHHHH-NH2
Source text: as §1

B1: NI-308.46E9 (antibody, V domains shown)
VH: QVQLQESGPGLVKPSETLSLTCTVSGASISGSTYYWGWIRQPPGKGLEYIGRIYYSGSTYYNPSLKSRATISVDTSKNQLSLTLSSVTAADTAVYYCVRPFYAGSGNSPFDYWGQGTLVTVSS
VL: CEIVLTQSPATVSVSPGERATLSCRASQSVSTNLAWYQQKPGQPPRLLIYGASTRATGIPARFSGSGSGAEFTLTISSLQSEDFVVYYCQQYNNWPPAFGGGTKVEIK
notes: Recombinant complete human IgG1, kappa
[1]
  EC50: > 200 nM

B2: NI-308.5G2 (antibody, V domains shown)
VH: EVQLVQSGADLRNPGASVTVSCTASGYHFADNAINWLRQAPGQRLEWMGWINIYSGNTKYSQNFQGRVTFTRNTSASTAFMHLRSLRSEDTAVYFCARDPDSSGYYLPYFDYWGQGTLVTVSS
VL: DIQLTQSPDSLTLSLGERATINCKSSQSVFYNSNNKNYLAWYQQKPGQPPKLLMYWASTRESGVTDRFSGSGSGTDFTLTITNLQAEDVAVYYCQQFYSSPLTFGGGTKVEIK
notes: as for B1
[2]
  binding result: no binding (tested: about 4x10^5 pM (last point))
[3]
  binding result: no binding (tested: about 4x10^5 pM (last point))
[4]
  binding result: no binding (tested: about 4x10^5 pM (last point))

B3: NI-308.6B11 (antibody, V domains shown)
VH: EVQLVQSGAEVKRPGASVKVSCKVSGYTLTELSMHWVRQAPGKGLEWMGGFDPEDGETVYAQKFQGRVTMTEDTSTDTAYMELSSLRSEDTALYHCATYGSSWHWNEGNEGSYYFDYWGQGTLVTVSS
VL: CDIQMTQSPSSLSASVGDRVTITCQASQDISIYLNWYQQKPGKAPKLLIYDASNLETGVPSRFSGSGSGTDFTFTISGLQPEDVARYYCQQYDDLPITFGQGTRLEIK
notes: as for B1
[5]
  binding result: no binding (tested: about 4x10^5 pM (last point))
[6]
  binding result: no binding (tested: about 4x10^5 pM (last point))
[7]
  binding result: no binding (tested: about 4x10^5 pM (last point))
[8]
  binding result: no binding (tested: about 4x10^5 pM (last point))
